The Human Domainome abundance scans (Beltran et al. 2025)
± gives the uncertainty stated by the source.

B1: Calcium-binding protein 2, residues 155 to 219; numbered along this chain, Q9NPB3 (parent)
chain: RELRDAFREFDTNGDGRISVGELRAALKALLGERLSQREVDEILQDVDLNGDGLVDFEEFVRMMS

Variants of: B1
Test: abundance fitness (aPCA) (normalised: wild type 0, dead -1); higher = more abundant; growth selection in yeast, the domain comes from the species named
Details: Homo sapiens

Variant	abundance fitness
RELRDAFREFDTNGDGRISVGRLRAALKALLGERLSQREVDEILQDVDLNGDGLVDFEEFVRMMS	-0.549 ± 0.061
RELRDAFREFDTNGDGRISVGDLRAALKALLGERLSQREVDEILQDVDLNGDGLVDFEEFVRMMS	-0.49 ± 0.34
RELRDAFREFDTNGDGRISVGCLRAALKALLGERLSQREVDEILQDVDLNGDGLVDFEEFVRMMS	-0.469 ± 0.23
RELRDAFREFDTNGDGRISVGILRAALKALLGERLSQREVDEILQDVDLNGDGLVDFEEFVRMMS	-0.729 ± 0.34
RELRDAFREFDTNGDGRISVGYLRAALKALLGERLSQREVDEILQDVDLNGDGLVDFEEFVRMMS	-0.814 ± 0.14
RELRDAFREFDTNGDGRISVGTLRAALKALLGERLSQREVDEILQDVDLNGDGLVDFEEFVRMMS	-0.486 ± 0.082
RELRDAFREFDTNGDGRISVGENRAALKALLGERLSQREVDEILQDVDLNGDGLVDFEEFVRMMS	-0.213 ± 0.096
RELRDAFREFDTNGDGRISVGEMRAALKALLGERLSQREVDEILQDVDLNGDGLVDFEEFVRMMS	0.025 ± 0.094
RELRDAFREFDTNGDGRISVGECRAALKALLGERLSQREVDEILQDVDLNGDGLVDFEEFVRMMS	-0.139 ± 0.28
RELRDAFREFDTNGDGRISVGEERAALKALLGERLSQREVDEILQDVDLNGDGLVDFEEFVRMMS	-0.663 ± 0.14
RELRDAFREFDTNGDGRISVGEARAALKALLGERLSQREVDEILQDVDLNGDGLVDFEEFVRMMS	0.118 ± 0.072
RELRDAFREFDTNGDGRISVGEGRAALKALLGERLSQREVDEILQDVDLNGDGLVDFEEFVRMMS	-0.193 ± 0.07
RELRDAFREFDTNGDGRISVGEFRAALKALLGERLSQREVDEILQDVDLNGDGLVDFEEFVRMMS	-0.235 ± 0.1
RELRDAFREFDTNGDGRISMGELRAALKALLGERLSQREVDEILQDVDLNGDGLVDFEEFVRMMS	0.066 ± 0.094
RELRDAFREFDTNGDGRISHGELRAALKALLGERLSQREVDEILQDVDLNGDGLVDFEEFVRMMS	-0.043 ± 0.13
RELRDAFREFDTNGDGRISAGELRAALKALLGERLSQREVDEILQDVDLNGDGLVDFEEFVRMMS	-0.317 ± 0.092
RELRDAFREFDTNGDGRISKGELRAALKALLGERLSQREVDEILQDVDLNGDGLVDFEEFVRMMS	-0.639 ± 0.23
RELRDAFREFDTNGDGRISGGELRAALKALLGERLSQREVDEILQDVDLNGDGLVDFEEFVRMMS	0.004 ± 0.067
RELRDAFREFDTNGDGRISQGELRAALKALLGERLSQREVDEILQDVDLNGDGLVDFEEFVRMMS	-0.005 ± 0.081
RELRDAFREFDTNGDGRISSGELRAALKALLGERLSQREVDEILQDVDLNGDGLVDFEEFVRMMS	-0.164 ± 0.076
RELRDAFREFDTNGDGRISNGELRAALKALLGERLSQREVDEILQDVDLNGDGLVDFEEFVRMMS	0.081 ± 0.3

Variant	abundance fitness
RELRDAFREFDTNGDGRISLGELRAALKALLGERLSQREVDEILQDVDLNGDGLVDFEEFVRMMS	0.093 ± 0.05
RELRDAFREFDTNGDGRISPGELRAALKALLGERLSQREVDEILQDVDLNGDGLVDFEEFVRMMS	0.163 ± 0.11
RELRDAFREFDTNGDGRISTGELRAALKALLGERLSQREVDEILQDVDLNGDGLVDFEEFVRMMS	-0.146 ± 0.12
RELRDAFREFDTNGDGRISCGELRAALKALLGERLSQREVDEILQDVDLNGDGLVDFEEFVRMMS	0.061 ± 0.16
RELRDAFREFDTNGDGRISVQELRAALKALLGERLSQREVDEILQDVDLNGDGLVDFEEFVRMMS	-0.001 ± 0.11
RELRDAFREFDTNGDGRISVCELRAALKALLGERLSQREVDEILQDVDLNGDGLVDFEEFVRMMS	-0.244 ± 0.23
RELRDAFREFDTNGDGRISVVELRAALKALLGERLSQREVDEILQDVDLNGDGLVDFEEFVRMMS	-0.061 ± 0.039
RELRDAFREFDTNGDGRISVLELRAALKALLGERLSQREVDEILQDVDLNGDGLVDFEEFVRMMS	-0.049 ± 0.043
RELRDAFREFDTNGDGRISVSELRAALKALLGERLSQREVDEILQDVDLNGDGLVDFEEFVRMMS	-0.026 ± 0.066
RELRDAFREFDTNGDGRISVTELRAALKALLGERLSQREVDEILQDVDLNGDGLVDFEEFVRMMS	0.01 ± 0.069
RELRDAFREFDTNGDGRISVKELRAALKALLGERLSQREVDEILQDVDLNGDGLVDFEEFVRMMS	-0.193 ± 0.077
RELRDAFREFDTNGDGRISVHELRAALKALLGERLSQREVDEILQDVDLNGDGLVDFEEFVRMMS	-0.328 ± 0.3
RELRDAFREFDTNGDGRISVAELRAALKALLGERLSQREVDEILQDVDLNGDGLVDFEEFVRMMS	0 ± 0.055
RELRDAFREFDTNGDGRISVWELRAALKALLGERLSQREVDEILQDVDLNGDGLVDFEEFVRMMS	-0.423 ± 0.2
RELRDAFREFDTNGDGRISVMELRAALKALLGERLSQREVDEILQDVDLNGDGLVDFEEFVRMMS	-0.09 ± 0.093
RELRDAFREFDTNGDGRISVIELRAALKALLGERLSQREVDEILQDVDLNGDGLVDFEEFVRMMS	-0.134 ± 0.18
RELRDAFREFDTNGDGRISVPELRAALKALLGERLSQREVDEILQDVDLNGDGLVDFEEFVRMMS	0.044 ± 0.052
RELRDAFREFDTNGDGRISVDELRAALKALLGERLSQREVDEILQDVDLNGDGLVDFEEFVRMMS	0.141 ± 0.089
RELRDAFREFDTNGDGRISVRELRAALKALLGERLSQREVDEILQDVDLNGDGLVDFEEFVRMMS	-0.196 ± 0.053
RELRDAFREFDTNGDGRISVFELRAALKALLGERLSQREVDEILQDVDLNGDGLVDFEEFVRMMS	0.102 ± 0.29
RELRDAFREFDTNGDGRISVNELRAALKALLGERLSQREVDEILQDVDLNGDGLVDFEEFVRMMS	-0.064 ± 0.1
